The record followed here is patent US20110294135, “COMPOSITIONS AND METHODS FOR ANALYTE DETECTION AND QUANTITATION” (BioDesic, LLC, published 2011).

For data set [1], the target named is T1, LG-268-NRE (Protein LG fused to Zif268-NRE six-finger zinc finger protein) (Artificial Sequence). Nature of the data set: EMSA; 0.03 mM protein, Tris-glycine, room temp 15-60 min, 4-20% acrylamide gel, SYBR Gold; detector complex visible, further shifted by bovine IgG. The note with it: tags: C-terminal His tag (pET20b(+)); N-terminal Protein LG fusion. The procedure: Stock solutions of LG-268-NRE (0.1 mM), the DNA detection moiety (500 ng/μl for a 50-mer and 1 μg/μl for an 80- or 100-mers), the target analytes (Bovine IgG antibodies (Equitech Bio, B60-0010; Final concentration of 1 mg/ml), and loading buffer (Jule Tris-Glycine running buffer; Jule Inc.; Catalog Number: TGNRB10X) were combined at the same time and mixed in a microfuge tube in a final reaction volume of 75 μl. Final concentrations were as follows: 0.03 mM for LG-268-NRE, 100 ng/75 μl for the 50-mer, and 10 μg/75 μl for the 80- or 100-mers. The combined mixture was then allowed to sit for 15-60 minutes at room temperature (approximately 20-22° C.). Appropriate volumes of the controls and the mixed solution were then loaded into wells of acrylamide (50 μl) or agarose gels (75 μl) and run as described below. The agarose gels and the staining buffer are made with Jule Tris-Glycine running buffer (Jule Inc.; Catalog Number: TGNRB10X). The binding reactions are also performed with a range of protein concentrations and/or in the presence of salt, e.g., 50-100 mM KCl or NaCl. Molecular weight standards were: Bioline Hyperladder 1: BIO-33053; Hyperladder 2: BIO-33054; and Hyperladder 3: BIO-33055.
Background: In EMSA bound probe runs differently from free probe, usually more slowly.

Data set [2] deals with T1, LG-268-NRE (Protein LG fused to …). The data set is described as follows: EMSA; 0.03 mM protein, Tris-glycine, room temp 15-60 min, SYBR Gold; detector complex visible, further shifted by bovine IgG. Particulars: tags: C-terminal His tag (pET20b(+)); N-terminal Protein LG fusion.

B1: 80-mer DNA detection moiety (dsDNA)
DNA 1: TTTTGGGGTTGATAGAAAAGATAGAGGGTATAGTGAGTCGTATTAATTTCAGAATTCATTTCAAGGGTTCAGCGTGGGCG
DNA 2: CGCCCACGCTGAACCCTTGAAATGAATTCTGAAATTAATACGACTCACTATACCCTCTATCTTTTCTATCAACCCCAAAA
For the molecule B1, in data set [1], the binding result is “binds”.

B2: 100-mer DNA detection moiety (dsDNA)
DNA 1: CCCACTTCATTGTGCCAAAGTTTTGGGGTTGATAGAAAAGATAGAGGGTATAGTGAGTCGTATTAATTTCAGAATTCATTTCAAGGGTTCAGCGTGGGCG
DNA 2: CGCCCACGCTGAACCCTTGAAATGAATTCTGAAATTAATACGACTCACTATACCCTCTATCTTTTCTATCAACCCCAAAACTTTGGCACAATGAAGTGGG
B2: in data set [2], the binding result is “binds”.
